This note sets out measurements from IntAct's records for PubMed 20562859.

The target of one assay is atg5_human ATG5 (UniProt Q9H1Y0).
For the next assay, the target named is T1, ATG16L2 (UniProt Q8NAA4).
T1 sequence: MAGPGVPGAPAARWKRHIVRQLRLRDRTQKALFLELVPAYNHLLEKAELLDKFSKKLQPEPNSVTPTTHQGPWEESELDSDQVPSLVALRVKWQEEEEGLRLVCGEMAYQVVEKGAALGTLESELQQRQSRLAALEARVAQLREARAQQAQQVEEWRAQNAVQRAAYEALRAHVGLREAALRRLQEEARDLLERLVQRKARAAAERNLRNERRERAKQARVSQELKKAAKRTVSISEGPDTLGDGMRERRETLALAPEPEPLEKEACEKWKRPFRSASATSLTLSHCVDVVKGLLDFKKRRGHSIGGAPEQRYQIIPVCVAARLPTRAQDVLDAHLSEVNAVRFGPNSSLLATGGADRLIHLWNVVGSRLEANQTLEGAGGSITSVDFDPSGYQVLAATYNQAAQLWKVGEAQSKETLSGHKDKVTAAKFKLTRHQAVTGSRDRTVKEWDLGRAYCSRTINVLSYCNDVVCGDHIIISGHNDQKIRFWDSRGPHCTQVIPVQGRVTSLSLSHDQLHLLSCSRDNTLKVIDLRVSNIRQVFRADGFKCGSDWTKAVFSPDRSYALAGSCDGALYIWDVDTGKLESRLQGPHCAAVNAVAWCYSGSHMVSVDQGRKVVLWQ

Another assay has as its target T2, daaf4_human DNAAF4 (UniProt Q8WXU2).
T2 sequence: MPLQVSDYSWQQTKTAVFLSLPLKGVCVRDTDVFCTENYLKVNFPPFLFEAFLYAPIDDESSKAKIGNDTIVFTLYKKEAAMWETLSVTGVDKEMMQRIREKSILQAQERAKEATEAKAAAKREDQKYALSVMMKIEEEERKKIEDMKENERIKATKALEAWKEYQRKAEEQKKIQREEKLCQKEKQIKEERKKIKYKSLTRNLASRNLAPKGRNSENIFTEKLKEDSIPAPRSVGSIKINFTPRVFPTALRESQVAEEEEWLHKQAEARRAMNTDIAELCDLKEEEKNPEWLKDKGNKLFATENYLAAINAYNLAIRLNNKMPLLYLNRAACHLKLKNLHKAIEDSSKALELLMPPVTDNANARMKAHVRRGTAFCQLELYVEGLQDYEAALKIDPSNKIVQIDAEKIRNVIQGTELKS

Another assay deals with T3, stk4_human STK4 (UniProt Q13043).
T3 sequence: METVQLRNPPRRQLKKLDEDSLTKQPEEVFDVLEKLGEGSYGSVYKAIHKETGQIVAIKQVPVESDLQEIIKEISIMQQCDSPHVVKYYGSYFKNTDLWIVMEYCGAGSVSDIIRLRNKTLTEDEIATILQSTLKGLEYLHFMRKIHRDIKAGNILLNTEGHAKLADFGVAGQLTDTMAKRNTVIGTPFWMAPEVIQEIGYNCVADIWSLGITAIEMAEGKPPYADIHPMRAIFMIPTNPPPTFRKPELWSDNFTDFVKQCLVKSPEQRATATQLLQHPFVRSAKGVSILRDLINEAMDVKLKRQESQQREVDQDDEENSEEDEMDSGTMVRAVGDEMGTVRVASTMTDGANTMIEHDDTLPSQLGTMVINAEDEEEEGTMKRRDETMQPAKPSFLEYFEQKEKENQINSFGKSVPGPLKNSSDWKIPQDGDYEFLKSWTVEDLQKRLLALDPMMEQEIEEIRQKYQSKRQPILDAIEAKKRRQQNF

The target in another assay is kap0_human PRKAR1A (UniProt P10644).
The next assay addresses T4, rasf1_human RASSF1 (UniProt Q9NS23).
T4 sequence: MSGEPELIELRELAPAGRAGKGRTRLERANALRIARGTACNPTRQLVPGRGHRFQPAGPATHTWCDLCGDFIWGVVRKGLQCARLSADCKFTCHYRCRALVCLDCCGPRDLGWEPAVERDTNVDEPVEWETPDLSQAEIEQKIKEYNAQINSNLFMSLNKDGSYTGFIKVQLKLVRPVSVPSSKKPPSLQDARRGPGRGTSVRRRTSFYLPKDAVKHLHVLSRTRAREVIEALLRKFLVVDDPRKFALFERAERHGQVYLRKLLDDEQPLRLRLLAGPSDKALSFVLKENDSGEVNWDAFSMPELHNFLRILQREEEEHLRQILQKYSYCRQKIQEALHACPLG

kap0_human PRKAR1A, sequence (P10644 whole entry): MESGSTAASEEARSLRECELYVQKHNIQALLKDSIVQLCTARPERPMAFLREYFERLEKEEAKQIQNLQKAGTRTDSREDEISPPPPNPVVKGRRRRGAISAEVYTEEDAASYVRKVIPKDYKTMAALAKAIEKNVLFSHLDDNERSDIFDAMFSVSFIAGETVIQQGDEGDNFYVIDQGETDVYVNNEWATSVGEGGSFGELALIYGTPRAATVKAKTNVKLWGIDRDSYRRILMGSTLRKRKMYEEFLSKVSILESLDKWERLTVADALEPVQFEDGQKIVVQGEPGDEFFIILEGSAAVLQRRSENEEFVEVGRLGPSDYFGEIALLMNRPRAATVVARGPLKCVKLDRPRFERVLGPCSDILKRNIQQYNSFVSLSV
atg5_human ATG5, sequence (Q9H1Y0 whole entry): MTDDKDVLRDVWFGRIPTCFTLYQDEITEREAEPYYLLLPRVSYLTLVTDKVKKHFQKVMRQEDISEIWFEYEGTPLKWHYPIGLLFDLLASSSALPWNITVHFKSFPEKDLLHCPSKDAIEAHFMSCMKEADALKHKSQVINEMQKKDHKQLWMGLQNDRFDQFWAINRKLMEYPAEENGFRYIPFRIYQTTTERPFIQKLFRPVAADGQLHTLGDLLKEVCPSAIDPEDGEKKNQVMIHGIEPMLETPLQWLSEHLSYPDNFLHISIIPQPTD

As for “Microtubule-associated protein 1 light chain 3 beta (Homo sapiens) (from UniProt Q9GZQ8) F52A;L53A”, the “effect of a mutation on the interaction” value in the assay with atg5_human ATG5 and in the assay with ATG16L2 was “increasing interaction” in each case.
With “Microtubule-associated protein 1 light chain 3 beta (Homo sapiens) (from UniProt Q9GZQ8) R69A”, the “effect of a mutation on the interaction” value with daaf4_human DNAAF4 is recorded as “decreasing interaction”; with stk4_human STK4 it was “disrupting interaction”; in the assay with kap0_human PRKAR1A, “decreasing interaction”; in the assay with rasf1_human RASSF1, “decreasing interaction”.
